Measurements from publication PMC5339343, “Evaluation of Rint1 as a modifier of intestinal tumorigenesis and cancer risk” (PLoS ONE, 2017).

Tests used:
[1] = biological target: T1, FLAG-tagged full-length human RINT1 I152M; I168T (human, UniProt Q6NUQ1 1-792, I152M | I168T); test: co-IP; FLAG-RINT1 plasmids co-transfected with the UVRAG plasmid into HEK293T; lysate in TNE buffer (10 mM Tris acetate, 0.5% NP-40, 2 mM EDTA); anti-FLAG M2 affinity gel overnight, eluted with FLAG peptide; blot for UVRAG, quantified; conditions: partners not purified
T1 construct: The results sentence on UVRAG prints I152T;I168T; the methods made only I152M and I168T together; also called RINT1 n.456A>G; n.503T>C (I152M and I168T); source: HEK293T, transfected, in lysate

[2] = biological target: T2, FLAG-tagged full-length human RINT1 I152M (human, UniProt Q6NUQ1 1-792, I152M); test: as above; conditions: partners not purified
T2 construct: The change copies a variant of the B6 mouse Rint1 allele into human RINT1; The results sentence on UVRAG prints I152T; the methods made only I152M; also called RINT1 n.456A>G (I152M); RINT1 I152M allele; source: HEK293T, transfected, in lysate
T2 sequence (Q6NUQ1 whole entry I152M): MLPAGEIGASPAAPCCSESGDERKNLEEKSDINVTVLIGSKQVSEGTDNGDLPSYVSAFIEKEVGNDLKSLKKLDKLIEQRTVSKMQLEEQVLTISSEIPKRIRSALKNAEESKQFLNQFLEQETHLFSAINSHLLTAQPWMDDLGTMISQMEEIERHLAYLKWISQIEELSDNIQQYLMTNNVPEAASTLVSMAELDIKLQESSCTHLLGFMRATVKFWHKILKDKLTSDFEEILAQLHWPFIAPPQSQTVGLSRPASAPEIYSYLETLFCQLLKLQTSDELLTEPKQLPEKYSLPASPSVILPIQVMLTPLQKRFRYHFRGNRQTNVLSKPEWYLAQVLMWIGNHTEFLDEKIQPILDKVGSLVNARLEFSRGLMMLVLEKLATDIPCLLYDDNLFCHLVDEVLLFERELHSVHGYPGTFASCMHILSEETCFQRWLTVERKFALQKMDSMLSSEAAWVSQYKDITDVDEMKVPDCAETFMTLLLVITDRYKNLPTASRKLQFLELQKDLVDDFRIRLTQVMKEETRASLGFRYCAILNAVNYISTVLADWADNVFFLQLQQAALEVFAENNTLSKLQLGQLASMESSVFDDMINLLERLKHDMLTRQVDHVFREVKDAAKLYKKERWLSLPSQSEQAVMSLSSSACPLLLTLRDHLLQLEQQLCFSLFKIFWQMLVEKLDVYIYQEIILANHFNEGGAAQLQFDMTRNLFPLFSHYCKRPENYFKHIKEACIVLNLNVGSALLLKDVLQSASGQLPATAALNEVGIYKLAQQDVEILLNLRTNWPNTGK

T1 sequence (Q6NUQ1 whole entry I152M/I168T): as the sequence (Q6NUQ1 whole entry I152M) above, with I168T counted along it

B1: UVRAG expressed from pCl-neo-HA-hUVRAG (natural protein, human, UniProt Q9P2Y5 1-699, looked up)
chain: MSASASVGGPVPQPPPGPAAALPPGSAARALHVELPSQQRRLRHLRNIAARNIVNRNGHQLLDTYFTLHLCSTEKIYKEFYRSEVIKNSLNPTWRSLDFGIMPDRLDTSVSCFVVKIWGGKENIYQLLIEWKVCLDGLKYLGQQIHARNQNEIIFGLNDGYYGAPFEHKGYSNAQKTILLQVDQNCVRNSYDVFSLLRLHRAQCAIKQTQVTVQKIGKEIEEKLRLTSTSNELKKKSECLQLKILVLQNELERQKKALGREVALLHKQQIALQDKGSAFSAEHLKLQLQKESLNELRKECTAKRELFLKTNAQLTIRCRQLLSELSYIYPIDLNEHKDYFVCGVKLPNSEDFQAKDDGSIAVALGYTAHLVSMISFFLQVPLRYPIIHKGSRSTIKDNINDKLTEKEREFPLYPKGGEKLQFDYGVYLLNKNIAQLRYQHGLGTPDLRQTLPNLKNFMEHGLMVRCDRHHTSSAIPVPKRQSSIFGGADVGFSGGIPSPDKGHRKRASSENERLQYKTPPPSYNSALAQPVTTVPSMGETERKITSLSSSLDTSLDFSKENKKKGEDLVGSLNGGHANVHPSQEQGEALSGHRATVNGTLLPSEQAGSASVQLPGEFHPVSEAELCCTVEQAEEIIGLEATGFASGDQLEAFNCIPVDSAVAVECDEQVLGEFEEFSRRIYALNENVSSFRRPRRSSDK
notes: UVRAG, human (hUVRAG), from the plasmid pCl-neo-HA-hUVRAG (Itakura et al. 2008); Detected with an anti-UVRAG antibody; source: HEK293T, transfected, in lysate
With B1 the “fold change of UVRAG co-immunoprecipitation against wild-type RINT1” value [1] was no less than 2 fold and the “fold change of UVRAG co-immunoprecipitation against wild-type RINT1” value [2] was no less than 2 fold.
